± gives the standard deviation of the averaged measurements.
Key:
Saccharomyces cerevisiae [1] = assay: protein stability index of tFT-peptide fusion (C-terminal peptide) (PSI (0-1 scale)); higher = more stable (slower turnover)
Method: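 MPS profiling in S. cerevisiae of the tFT-X12 degron library: putative degron peptides plus stable controls, 12 aa, fused to the C-terminus of a sfGFP-mCherry timer. Cells are FACS-sorted into 8 mCherry/sfGFP bins and deep-sequenced. PSI runs from 0 (unstable) to 1 (stable). Backgrounds are wild type, das1Δ and doa10Δ at 30 °C, and wild type, das1Δ, cdc34-1 and cdc53-1 at 37 °C; 2-3 technical replicates each.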

Saccharomyces cerevisiae [2] = assay: as above; conditions: genetic background: wild type; temperature: 30 C
[3] = genetic background: cdc34-1, temperature: 37 C
[4] = genetic background: cdc53-1, temperature: 37 C
[5] = genetic background: das1 deletion, temperature: 30 C
[6] = genetic background: das1 deletion, temperature: 37 C
[7] = genetic background: doa10 deletion, temperature: 30 C
[8] = genetic background: wild type, temperature: 30 C
[9] = genetic background: wild type, temperature: 37 C
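Note: PSI is a weighted mean of sequencing reads over stability bins, variants kept only with over 10 reads, mCherry proximal and sfGFP distal, peptide attached via GGGS linker.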

| Sequence | protein stability index (Saccharomyces cerevisiae [1]; [3]) | protein stability index (Saccharomyces cerevisiae [1]; [4]) | protein stability index (Saccharomyces cerevisiae [1]; [5]) | protein stability index (Saccharomyces cerevisiae [1]; [6]) | protein stability index (Saccharomyces cerevisiae [1]; [7]) | protein stability index (Saccharomyces cerevisiae [1]; [8]) | protein stability index (Saccharomyces cerevisiae [1]; [9]) | protein stability index (Saccharomyces cerevisiae [2]) |
| --- | --- | --- | --- | --- | --- | --- | --- | --- |
| GLPGYAWGRSGG | 0.6759 ± 0.0045 | 0.788 ± 0.02 | 0.743 ± 0.037 | 0.782 ± 0.012 | 0.776 ± 0.037 | 0.775 ± 0.029 | 0.7221 ± 0.0024 | 0.586 ± 0.22 |
| GLSLVCWIVVLG | 0.153 ± 0.033 | 0.202 ± 0.066 | 0.189 ± 0.037 | 0.347 ± 0.017 | 0.1899 ± 0.0016 | 0.178 ± 0.032 | 0.318 ± 0.0055 | 0.306 ± 0.014 |
| GLVVMFVIAGGG | 0.405 ± 0.0067 | 0.459 ± 0.008 | 0.284 ± 0.05 | 0.5057 ± 0.00061 | 0.2577 ± 0.0014 | 0.299 ± 0.034 | 0.464 ± 0.015 | 0.404 ± 0.015 |
| GMGRVLVEVLLC | 0.293 ± 0.0086 | 0.451 ± 0.036 | 0.317 ± 0.033 | 0.5187 ± 0.0023 | 0.0999 ± 0.0047 | 0.101 ± 0.021 | 0.0812 ± 0.017 | 0.165 ± 0.029 |
| GMLIYVIGGLSH | 0.652 ± 0.016 | 0.652 ± 0.04 | 0.435 ± 0.027 | 0.667 ± 0.017 | 0.438 ± 0.011 | 0.4464 ± 0.0034 | 0.626 ± 0.019 | 0.508 ± 0.06 |
| GMMLLRFIIRWY | 0.0773 ± 0.026 | 0.15 ± 0.027 | 0.141 ± 0.04 | 0.268 ± 0.0083 | 0.138 ± 0.0027 | 0.134 ± 0.03 | 0.212 ± 0.0061 | 0.173 ± 0.045 |
| GPFVRSALIFIF | 0.535 ± 0.04 | 0.582 ± 0.045 | 0.467 ± 0.021 | 0.603 ± 0.034 | 0.304 ± 0.0055 | 0.343 ± 0.026 | 0.547 ± 0.022 | 0.407 ± 0.018 |
| GRAVGLANFTIK | 0.659 ± 0.02 | 0.756 ± 0.033 | 0.641 ± 0.026 | 0.735 ± 0.015 | 0.65 ± 0.044 | 0.68 ± 0.042 | 0.7006 ± 0.0042 | 0.129 ± 0.012 |
| GRCGGPRSLGVG | 0.562 ± 0.036 | 0.589 ± 0.022 | 0.52 ± 0.022 | 0.5989 ± 0.001 | 0.5493 ± 0.0022 | 0.538 ± 0.012 | 0.5853 ± 0.0057 | 0.547 ± 0.07 |
| GSGCLFNRWRIL | 0.6956 ± 0.0048 | 0.7303 ± 0.0059 | 0.6487 ± 0.0063 | 0.733 ± 0.022 | 0.169 ± 0.034 | 0.196 ± 0.027 | 0.46 ± 0.0074 | 0.287 ± 0.045 |
| GSLLWSGWSTCY | 0.768 ± 0.018 | 0.811 ± 0.011 | 0.698 ± 0.058 | 0.826 ± 0.0092 | 0.6696 ± 0.0058 | 0.693 ± 0.022 | 0.763 ± 0.0077 | 0.761 ± 0.043 |
| GSWGGGWRYVGW | 0.761 ± 0.037 | 0.792 ± 0.016 | 0.663 ± 0.012 | 0.7947 ± 0.0036 | 0.664 ± 0.037 | 0.685 ± 0.023 | 0.759 ± 0.011 | 0.734 ± 0.033 |
| GTSDLIALLMLT | 0.688 ± 0.047 | 0.7275 ± 0.0021 | 0.607 ± 0.011 | 0.7058 ± 0.0013 | 0.361 ± 0.026 | 0.403 ± 0.045 | 0.601 ± 0.007 | 0.509 ± 0.083 |
| GTWCLAMARFCA | 0.615 ± 0.056 | 0.755 ± 0.016 | 0.662 ± 0.026 | 0.762 ± 0.047 | 0.351 ± 0.025 | 0.375 ± 0.025 | 0.606 ± 0.039 | 0.4775 ± 0.0038 |
| GVFVVVGEASVH | 0.546 ± 0.0025 | 0.5995 ± 0.0049 | 0.402 ± 0.023 | 0.574 ± 0.0029 | 0.389 ± 0.021 | 0.406 ± 0.017 | 0.564 ± 0.011 | 0.421 ± 0.023 |
| GVFVWVVFVCTM | 0.145 ± 0.015 | 0.315 ± 0.029 | 0.198 ± 0.017 | 0.3718 ± 0.00094 | 0.167 ± 0.0025 | 0.201 ± 0.013 | 0.315 ± 0.028 | 0.268 ± 0.053 |
| GVKSQLYSFVWF | 0.6552 ± 0.0036 | 0.74 ± 0.015 | 0.633 ± 0.023 | 0.747 ± 0.013 | 0.3088 ± 0.0017 | 0.352 ± 0.018 | 0.593 ± 0.014 | 0.45 ± 0.015 |
| GVRCRLVIRVLG | 0.47 ± 0.035 | 0.508 ± 0.0085 | 0.286 ± 0.016 | 0.516 ± 0.0056 | 0.16864 ± 0.00011 | 0.22 ± 0.0075 | 0.407 ± 0.0064 | 0.316 ± 0.028 |
| GVSFLFVGVSLV | 0.469 ± 0.065 | 0.499 ± 0.01 | 0.34 ± 0.031 | 0.5503 ± 0.0019 | 0.3088 ± 0.00076 | 0.354 ± 0.015 | 0.523 ± 0.019 | 0.419 ± 0.041 |
| GVVCWVVVFGGW | 0.307 ± 0.029 | 0.5008 ± 0.0019 | 0.281 ± 0.029 | 0.512 ± 0.0065 | 0.233 ± 0.0029 | 0.262 ± 0.034 | 0.442 ± 0.058 | 0.416 ± 0.035 |
| GVWSLDWFLLVW | 0.0785 ± 0.021 | 0.187 ± 0.026 | 0.158 ± 0.016 | 0.223 ± 0.0023 | 0.134 ± 0.016 | 0.15 ± 0.023 | 0.217 ± 0.017 | 0.24 ± 0.016 |
| GWFCLFFVVSTG | 0.213 ± 0.034 | 0.3162 ± 0.0016 | 0.225 ± 0.024 | 0.4003 ± 0.0021 | 0.203 ± 0.0087 | 0.225 ± 0.031 | 0.371 ± 0.012 | 0.342 ± 0.026 |
| GWIFFYFTWFVG | 0.127 ± 0.018 | 0.236 ± 0.025 | 0.198 ± 0.028 | 0.319 ± 0.017 | 0.181 ± 0.029 | 0.172 ± 0.035 | 0.275 ± 0.0097 | 0.263 ± 0.022 |
| GWLSVLVYFLSG | 0.471 ± 0.025 | 0.545 ± 0.03 | 0.387 ± 0.034 | 0.5619 ± 0.0042 | 0.284 ± 0.0044 | 0.326 ± 0.0091 | 0.481 ± 0.022 | 0.408 ± 0.03 |
| GWVSCCVWSFLV | 0.243 ± 0.028 | 0.5924 ± 0.0053 | 0.531 ± 0.016 | 0.663 ± 0.0083 | 0.066 ± 0.012 | 0.066 ± 0.0087 | 0.063 ± 0.016 | 0.122 ± 0.015 |
| HALCLSVYVSAH | 0.265 ± 0.0049 | 0.304 ± 0.022 | 0.249 ± 0.031 | 0.397 ± 0.018 | 0.179 ± 0.0045 | 0.185 ± 0.02 | 0.323 ± 0.018 | 0.281 ± 0.024 |
| HCLLQDVPPTLH | 0.641 ± 0.026 | 0.6925 ± 0.0062 | 0.711 ± 0.051 | 0.678 ± 0.014 | 0.703 ± 0.021 | 0.702 ± 0.015 | 0.66 ± 0.02 | 0.734 ± 0.031 |
| HCNRRNKIYWYS | 0.6116 ± 0.00076 | 0.73 ± 0.012 | 0.689 ± 0.063 | 0.739 ± 0.051 | 0.106 ± 0.019 | 0.111 ± 0.032 | 0.189 ± 0.014 | 0.304 ± 0.051 |
| HILRLVYFIVYE | 0.402 ± 0.01 | 0.533 ± 0.028 | 0.316 ± 0.044 | 0.504 ± 0.0089 | 0.264 ± 0.01 | 0.293 ± 0.015 | 0.554 ± 0.017 | 0.4189 ± 0.003 |
| HLYCYNILLVSG | 0.2001 ± 0.00066 |  | 0.306 ± 0.04 | 0.419 ± 0.007 | 0.201 ± 0.018 | 0.254 ± 0.015 | 0.375 ± 0.038 | 0.286 ± 0.042 |

Reference: the supplement of paper PMC10724198
